In patent US20180346538A1 (IMMATICS BIOTECHNOLOGIES, published 2018) one finds peptide exchange yield data, which are given here for two molecules.

This assay deals with T1, HLA-A*02:01 (human).
T1 construct: MHC monomer captured on streptavidin plates; also called peptide-receptive MHC molecules; MHC class I
The assay is described as follows: UV-ligand exchange ELISA (anti-b2m), yield grade. (In general: An ELISA detects its analyte on a solid surface through an enzyme-linked reagent.)

Description: Candidate peptides for T cell based therapies according to the present invention were further tested for their MHC binding capacity (affinity). The individual peptide-MHC complexes were produced by UV-ligand exchange, where a UV-sensitive peptide is cleaved upon UV-irradiation, and exchanged with the peptide of interest as analyzed. […] To determine the yield of the exchange reaction, an ELISA was performed based on the detection of the light chain (β2m) of stabilized MHC complexes.
96 well MAXISorp plates (NUNC) were coated over night with 2 ug/ml streptavidin in PBS at room temperature, washed 4× and blocked for 1h at 37° C. in 2% BSA containing blocking buffer. […] Peptide-MHC monomers of the UV-exchange reaction were diluted 100 fold in blocking buffer. Samples were incubated for 1 h at 37° C., washed four times, incubated with 2 ug/ml HRP conjugated anti-β2m for 1h at 37° C., washed again and detected with TMB solution that is stopped with NH2SO4. Absorption was measured at 450 nm.

For SLLNQDLHWSL, the peptide exchange yield lay in the range of 50 to 75%.
For GLLDLPFRVGV the value was 50 to 75%.
